One experiment deals with UAF1 (UniProt Q8TAF3). The experiment can be described thus: FLAG co-immunoprecipitation, western blot. The conditions noted are these: reference: wild type; sites S306. In general terms: A western blot detects proteins with antibodies after separation by electrophoresis.
For experiment [1], the target named is UAF1 (USP1-associated factor 1), purified recombinant (UniProt Q8TAF3 1-677). The experiment can be described thus: pull-down.

This note sets out measurements from article PMC11348035 (Proceedings of the National Academy of Sciences of the …, 2024).

UAF1 (USP1-associated factor 1), purified recombinant, sequence (Q8TAF3 whole entry): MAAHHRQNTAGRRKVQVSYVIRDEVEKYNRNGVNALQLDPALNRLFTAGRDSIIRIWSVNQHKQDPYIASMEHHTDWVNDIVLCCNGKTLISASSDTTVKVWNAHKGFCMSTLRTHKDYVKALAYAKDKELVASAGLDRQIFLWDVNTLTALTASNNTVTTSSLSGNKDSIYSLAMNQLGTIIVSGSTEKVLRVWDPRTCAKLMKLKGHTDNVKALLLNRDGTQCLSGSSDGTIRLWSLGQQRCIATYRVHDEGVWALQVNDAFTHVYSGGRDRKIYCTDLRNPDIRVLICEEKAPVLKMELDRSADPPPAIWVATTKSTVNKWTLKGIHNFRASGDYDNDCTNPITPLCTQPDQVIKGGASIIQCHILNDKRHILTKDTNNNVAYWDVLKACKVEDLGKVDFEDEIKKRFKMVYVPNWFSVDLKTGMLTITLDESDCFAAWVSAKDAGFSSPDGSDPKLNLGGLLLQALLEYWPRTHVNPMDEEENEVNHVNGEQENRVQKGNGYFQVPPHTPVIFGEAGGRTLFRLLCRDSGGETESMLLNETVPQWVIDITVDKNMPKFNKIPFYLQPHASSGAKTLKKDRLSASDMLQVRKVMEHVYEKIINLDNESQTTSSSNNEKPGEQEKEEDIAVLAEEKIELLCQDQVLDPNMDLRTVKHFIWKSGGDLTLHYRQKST

Regarding ATAD5 (from UniProt Q96QE3) S306A, the “binding against the reference” value with UAF1 is on record as “weaker”.

B1: ATAD5 (1 to 500, S306E), the 'wild-type' ATAD5 (1 to 500) of the in vitro binding studies (domain or fragment, human, UniProt Q96QE3 1-500, looked up)
chain: MVGVLAMAAAAAPPPVKDCEIEPCKKRKKDDDTSTCKTITKYLSPLGKTRDRVFAPPKPSNILDYFRKTSPTNEKTQLGKECKIKSPESVPVDSNKDCTTPLEMFSNVEFKKKRKRVNLSHQLNNIKTENEAPIEISSDDSKEDYSLNNDFVESSTSVLRYKKQVEVLAENIQDTKSQPNTMTSLQNSKKVNPKQGTTKNDFKKLRKRKCRDVVDLSESLPLAEELNLLKKDGKDTKQMENTTSHANSRDNVTEAAQLNDSIITVSYEEFLKSHKENKVEEIPDSTMSICVPSETVDEIVKSGYIEESENSEISQQVRFKTVTVLAQVHPIPPKKTGKIPRIFLKQKQFEMENSLSDPENEQTVQKRKSNVVIQEEELELAVLEAGSSEAVKPKCTLEERQQFMKAFRQPASDALKNGVKKSSDKQKDLNEKCLYEVGRDDNSKKIMENSGIQMVSKNGNLQLHTDKGSFLKEKNKKLKKKNKKTLDTGAIPGKNREGNT
Regarding B1, the binding result in experiment [1] is on record as “binds”.
